# B1: MAB-A (antibody, V domains shown)
# VH: QVQLQQPGAELVKPGASVKLSCKASGYTFTSYWMHWVKQRPGQGLEWIGEIIPINGHTNYNEKFKSKATLTLDKSSSTAYMQLSSLASEDSAVYYCARGGYYYYGSRDYFDYWGQGTTLTVSS
# VL: DIVLTQSPASLAVSLGQRATISCKASQSVDYDGDSYMNWYQQIPGQPPKLLIYAASDLESGIPARFSGSGSGTDFTLNIHPVEEEDAATYYCQQSHEDPFTFGGGTKLEIK
# Key:
# [1] = target: human ADAM9 (Disintegrin and Metalloproteinase Domain-containing Protein 9), on cells (human) (UniProt Q13443); assay: IHC staining of human tumour tissue: Breast CA (USA-00329); antibody at 0.4 µg/mL
# human ADAM9 (Disintegrin and Metalloproteinase Domain-containing Protein 9), on cells (human), sequence (Q13443 206-819): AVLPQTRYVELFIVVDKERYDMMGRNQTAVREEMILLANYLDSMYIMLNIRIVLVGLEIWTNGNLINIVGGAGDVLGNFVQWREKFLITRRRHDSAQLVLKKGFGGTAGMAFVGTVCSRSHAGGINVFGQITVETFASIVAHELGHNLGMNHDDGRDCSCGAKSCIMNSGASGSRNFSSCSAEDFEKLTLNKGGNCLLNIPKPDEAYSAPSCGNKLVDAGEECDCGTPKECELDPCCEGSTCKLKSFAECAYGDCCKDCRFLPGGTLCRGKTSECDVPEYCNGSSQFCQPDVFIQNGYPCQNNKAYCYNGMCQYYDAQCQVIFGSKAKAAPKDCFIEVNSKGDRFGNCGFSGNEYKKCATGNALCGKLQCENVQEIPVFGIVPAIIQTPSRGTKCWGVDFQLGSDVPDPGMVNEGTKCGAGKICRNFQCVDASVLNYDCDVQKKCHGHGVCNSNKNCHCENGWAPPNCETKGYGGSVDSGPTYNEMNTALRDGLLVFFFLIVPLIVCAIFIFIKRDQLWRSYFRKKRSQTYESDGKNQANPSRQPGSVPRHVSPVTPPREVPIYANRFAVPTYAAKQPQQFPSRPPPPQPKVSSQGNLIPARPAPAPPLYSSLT
# [2] = target: human ADAM9 (Disintegrin and Metalloproteinase Domain-containing Protein 9), on cells (human) (UniProt Q13443); assay: IHC staining of human tumour tissue: Colon CA (ILS10341 B); antibody at 0.4 µg/mL
# [3] = target: human ADAM9 (Disintegrin and Metalloproteinase Domain-containing Protein 9), on cells (human) (UniProt Q13443); assay: IHC staining of human tumour tissue: Colon CA (ILS10369 B); antibody at 0.4 µg/mL
# [4] = target: human ADAM9 (Disintegrin and Metalloproteinase Domain-containing Protein 9), on cells (human) (UniProt Q13443); assay: IHC staining of human tumour tissue: Colon CA (ILS11330 B); antibody at 0.4 µg/mL
# [5] = target: human ADAM9 (Disintegrin and Metalloproteinase Domain-containing Protein 9), on cells (human) (UniProt Q13443); assay: IHC staining of human tumour tissue: Gastric CA (ILS-450 A); antibody at 0.4 µg/mL
# [6] = target: human ADAM9 (Disintegrin and Metalloproteinase Domain-containing Protein 9), on cells (human) (UniProt Q13443); assay: IHC staining of human tumour tissue: Colon CA (AGR-00237 B); antibody at 0.4 µg/mL
# [7] = target: human ADAM9 (Disintegrin and Metalloproteinase Domain-containing Protein 9), on cells (human) (UniProt Q13443); assay: IHC staining of human tumour tissue: Prostate CA (ILS20758-D3); antibody at 0.4 µg/mL
# [8] = target: human ADAM9 (Disintegrin and Metalloproteinase Domain-containing Protein 9), on cells (human) (UniProt Q13443); assay: IHC staining of human tumour tissue: NSCLC (ILS10901), Adenocarcinoma; antibody at 0.4 µg/mL
# [9] = target: human ADAM9 (Disintegrin and Metalloproteinase Domain-containing Protein 9), on cells (human) (UniProt Q13443); assay: IHC staining of human tumour tissue: NSCLC (ILS10108), Large Cell Carcinoma; antibody at 0.4 µg/mL
# [10] = target: human ADAM9 (Disintegrin and Metalloproteinase Domain-containing Protein 9), on cells (human) (UniProt Q13443); assay: IHC staining of human tumour tissue: NSCLC (ILS7223), Squamous Cell Carcinoma; antibody at 0.4 µg/mL
# [11] = target: human ADAM9 (Disintegrin and Metalloproteinase Domain-containing Protein 9), on cells (human) (UniProt Q13443); assay: IHC staining of human tumour tissue: NSCLC (ILS7115 D), Squamous Cell Carcinoma; antibody at 0.4 µg/mL
binder,measurement,setting,value
B1,Score,[1],3
same,Score,[2],2
same,Score,[3],1
same,Score,[4],2
same,Score,[5],2
same,Score,[6],3
same,Score,[7],3
same,Score,[8],3
same,Score,[9],3
same,Score,[10],3
same,Score,[11],1

# Source: patent US20210275685A1
